target: meditope-enabled trastuzumab; assay: SPR

For “meditope-protein L construct with six-residue linker GGGGSE (designed binder)”, which Kd is on record?
Its Kd is 0.18 nM.

For “meditope-protein L construct with six-residue linker PPPGPP (designed binder)”, which Kd is on record?
The Kd was 1.1 nM.

With “meditope-protein L construct with zero length linker (designed binder)” as the substance, how does the Kd read?
The Kd was 170 nM.

And the kon?
The kon was 160000 M⁻¹ s⁻¹.

“meditope-protein L construct with three-residue linker PSE (designed binder)” was tested. Which Kd did it give?
Its Kd is 1.3 nM.

With “meditope-protein L construct with six-residue linker GGPGSE (designed binder)” as the substance, how does the Kd read?
Its Kd is 0.18 nM.

From PMC4295097
